Variants at the floor of the assay were thinned out.
What was measured:
biotinyl-Ile-oxazolone = experiment: self-aminoacylation, catalytic enhancement (BIO) (fold over background); higher = more active; k-Seq, kA / k0A0; sequences stand for … in GGGAAUGGAUCCACAUCUACGAAUUC…UUCACUGCAGACUUGACGAAGCUG
Summary of the method: (§1)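 Mutagenized RNA pools with a 21-nt variable region (0.43 μM) reacted with each biotinyl-aminoacyl-oxazolone at 2–1250 μM. Reactions ran in 50 μL HEPES/NaCl/KCl/MgCl2/CaCl2 buffer with 5% acetonitrile, pH 6.9–7.0, for 90 minutes at room temperature. Streptavidin-captured RNA was quantified by triplicate qPCR and Illumina sequencing, and per-sequence fraction reacted was fit to a pseudo-first-order model with 1000 bootstraps. Catalytic enhancement is median kA divided by the uncatalyzed rate, the low-activity peak of a bimodal Gaussian fit.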

biotinyl-Val-oxazolone = experiment: self-aminoacylation, catalytic enhancement (BVO) (fold over background); higher = more active; k-Seq, kA / k0A0; sequences stand for … in GGGAAUGGAUCCACAUCUACGAAUUC…UUCACUGCAGACUUGACGAAGCUG
Summary of the method: as §1

biotinyl-Met-oxazolone = experiment: self-aminoacylation, catalytic enhancement (BMO) (fold over background); higher = more active; k-Seq, kA / k0A0; sequences stand for … in GGGAAUGGAUCCACAUCUACGAAUUC…UUCACUGCAGACUUGACGAAGCUG
Summary of the method: as §1

biotinyl-Leu-oxazolone = experiment: self-aminoacylation, catalytic enhancement (BLO) (fold over background); higher = more active; k-Seq, kA / k0A0; sequences stand for … in GGGAAUGGAUCCACAUCUACGAAUUC…UUCACUGCAGACUUGACGAAGCUG
Summary of the method: as §1

biotinyl-Phe-oxazolone = experiment: self-aminoacylation, catalytic enhancement (BFO) (fold over background); higher = more active; k-Seq, kA / k0A0; sequences stand for … in GGGAAUGGAUCCACAUCUACGAAUUC…UUCACUGCAGACUUGACGAAGCUG
Summary of the method: as §1

biotinyl-Trp-oxazolone = experiment: self-aminoacylation, catalytic enhancement (BWO) (fold over background); higher = more active; k-Seq, kA / k0A0; sequences stand for … in GGGAAUGGAUCCACAUCUACGAAUUC…UUCACUGCAGACUUGACGAAGCUG
Summary of the method: as §1

CCUCACUUCAUGCAAUCGGUC [Fam1B.1 aminoacylation ribozyme variant]
self-aminoacylation (biotinyl-Ile-oxazolone): 0.734 | self-aminoacylation (biotinyl-Val-oxazolone): 0.773 | self-aminoacylation (biotinyl-Met-oxazolone): 0.642 | self-aminoacylation (biotinyl-Leu-oxazolone): 0.735 | self-aminoacylation (biotinyl-Phe-oxazolone): 1.17 | self-aminoacylation (biotinyl-Trp-oxazolone): 0.804

CGACACUUCAAGCAGUCGGUC [Fam1B.1 aminoacylation ribozyme variant]
self-aminoacylation (biotinyl-Ile-oxazolone): 1.25 | self-aminoacylation (biotinyl-Val-oxazolone): 0.99 | self-aminoacylation (biotinyl-Met-oxazolone): 1.64 | self-aminoacylation (biotinyl-Leu-oxazolone): 1.23 | self-aminoacylation (biotinyl-Phe-oxazolone): 1.04 | self-aminoacylation (biotinyl-Trp-oxazolone): 1.74

AUUCACCUAGGACCUCGGGUG [Fam2.2 aminoacylation ribozyme variant]
self-aminoacylation (biotinyl-Ile-oxazolone): 2.77 | self-aminoacylation (biotinyl-Val-oxazolone): 2.63 | self-aminoacylation (biotinyl-Met-oxazolone): 3.6 | self-aminoacylation (biotinyl-Leu-oxazolone): 3.69 | self-aminoacylation (biotinyl-Phe-oxazolone): 20.7 | self-aminoacylation (biotinyl-Trp-oxazolone): 3.54

AUUCACCUACGUCAUCGGUUG [Fam2.2 aminoacylation ribozyme variant]
self-aminoacylation (biotinyl-Ile-oxazolone): 0.789 | self-aminoacylation (biotinyl-Val-oxazolone): 1.05 | self-aminoacylation (biotinyl-Met-oxazolone): 0.738 | self-aminoacylation (biotinyl-Leu-oxazolone): 0.647 | self-aminoacylation (biotinyl-Phe-oxazolone): 0.512 | self-aminoacylation (biotinyl-Trp-oxazolone): 0.436

AUUACACUGGUCCUCGAGUGA [Fam2.1 aminoacylation ribozyme variant]
self-aminoacylation (biotinyl-Ile-oxazolone): 2.72 | self-aminoacylation (biotinyl-Val-oxazolone): 2.32 | self-aminoacylation (biotinyl-Met-oxazolone): 5.17 | self-aminoacylation (biotinyl-Leu-oxazolone): 4.8 | self-aminoacylation (biotinyl-Phe-oxazolone): 23.4 | self-aminoacylation (biotinyl-Trp-oxazolone): 5.79

AUAUCCCUGGUCAUCGAGUGA [Fam2.1 aminoacylation ribozyme variant]
self-aminoacylation (biotinyl-Ile-oxazolone): 5.36 | self-aminoacylation (biotinyl-Val-oxazolone): 5.25 | self-aminoacylation (biotinyl-Met-oxazolone): 10.3 | self-aminoacylation (biotinyl-Leu-oxazolone): 9.81 | self-aminoacylation (biotinyl-Phe-oxazolone): 10.5 | self-aminoacylation (biotinyl-Trp-oxazolone): 11.8

GUUCGCCUAGGUCAUCGGGUG [Fam2.2 aminoacylation ribozyme variant]
self-aminoacylation (biotinyl-Ile-oxazolone): 9.85 | self-aminoacylation (biotinyl-Val-oxazolone): 10.2 | self-aminoacylation (biotinyl-Met-oxazolone): 18.9 | self-aminoacylation (biotinyl-Leu-oxazolone): 22.8 | self-aminoacylation (biotinyl-Phe-oxazolone): 121 | self-aminoacylation (biotinyl-Trp-oxazolone): 14.9

AUUAGCCUGGUCAUCGAGCGA [Fam2.1 aminoacylation ribozyme variant]
self-aminoacylation (biotinyl-Ile-oxazolone): 2.55 | self-aminoacylation (biotinyl-Val-oxazolone): 2.53 | self-aminoacylation (biotinyl-Met-oxazolone): 2.52 | self-aminoacylation (biotinyl-Leu-oxazolone): 2.59 | self-aminoacylation (biotinyl-Phe-oxazolone): 2.04 | self-aminoacylation (biotinyl-Trp-oxazolone): 4.5

CGACACUUCAAGCACUCGGUC [Fam1B.1 aminoacylation ribozyme variant]
self-aminoacylation (biotinyl-Ile-oxazolone): 1.28 | self-aminoacylation (biotinyl-Val-oxazolone): 1.32 | self-aminoacylation (biotinyl-Met-oxazolone): 1.38 | self-aminoacylation (biotinyl-Leu-oxazolone): 1.3 | self-aminoacylation (biotinyl-Phe-oxazolone): 1.46 | self-aminoacylation (biotinyl-Trp-oxazolone): 2

AAGUUCGCUAAUAGUAGCAAG [Fam3.1 aminoacylation ribozyme variant]
self-aminoacylation (biotinyl-Ile-oxazolone): 1.67 | self-aminoacylation (biotinyl-Val-oxazolone): 1.26 | self-aminoacylation (biotinyl-Met-oxazolone): 1.55 | self-aminoacylation (biotinyl-Leu-oxazolone): 1.28 | self-aminoacylation (biotinyl-Phe-oxazolone): 3.5 | self-aminoacylation (biotinyl-Trp-oxazolone): 1.24

AUUUCCCUGGUCAUCGAGUGA [Fam2.1 aminoacylation ribozyme variant]
self-aminoacylation (biotinyl-Ile-oxazolone): 7.41 | self-aminoacylation (biotinyl-Val-oxazolone): 8.47 | self-aminoacylation (biotinyl-Met-oxazolone): 14.3 | self-aminoacylation (biotinyl-Leu-oxazolone): 14.3 | self-aminoacylation (biotinyl-Phe-oxazolone): 27.4 | self-aminoacylation (biotinyl-Trp-oxazolone): 16.5

AUUCACCUAGAUCACCGGGUG [Fam2.2 aminoacylation ribozyme variant]
self-aminoacylation (biotinyl-Ile-oxazolone): 2.42 | self-aminoacylation (biotinyl-Val-oxazolone): 2.55 | self-aminoacylation (biotinyl-Met-oxazolone): 2.76 | self-aminoacylation (biotinyl-Leu-oxazolone): 3.69 | self-aminoacylation (biotinyl-Phe-oxazolone): 11.5 | self-aminoacylation (biotinyl-Trp-oxazolone): 2.86

AUUCACCUAGGUCAUUGGGGG [Fam2.2 aminoacylation ribozyme variant]
self-aminoacylation (biotinyl-Ile-oxazolone): 2.45 | self-aminoacylation (biotinyl-Val-oxazolone): 2.06 | self-aminoacylation (biotinyl-Met-oxazolone): 2.67 | self-aminoacylation (biotinyl-Leu-oxazolone): 2.77 | self-aminoacylation (biotinyl-Phe-oxazolone): 1.27 | self-aminoacylation (biotinyl-Trp-oxazolone): 3.03

AUUACCCAGGUGAUCGAGUGA [Fam2.1 aminoacylation ribozyme variant]
self-aminoacylation (biotinyl-Ile-oxazolone): 2.39 | self-aminoacylation (biotinyl-Val-oxazolone): 2.33 | self-aminoacylation (biotinyl-Met-oxazolone): 4.68 | self-aminoacylation (biotinyl-Leu-oxazolone): 4.3 | self-aminoacylation (biotinyl-Phe-oxazolone): 29.3 | self-aminoacylation (biotinyl-Trp-oxazolone): 6.02

AUUAUCCUGGUCAUCGAGAGA [Fam2.1 aminoacylation ribozyme variant]
self-aminoacylation (biotinyl-Ile-oxazolone): 1.08 | self-aminoacylation (biotinyl-Val-oxazolone): 0.989 | self-aminoacylation (biotinyl-Met-oxazolone): 0.869 | self-aminoacylation (biotinyl-Leu-oxazolone): 0.847 | self-aminoacylation (biotinyl-Phe-oxazolone): 1.15 | self-aminoacylation (biotinyl-Trp-oxazolone): 0.862

CCACACUUCAAGCAAUCUGUG [Fam1B.1 aminoacylation ribozyme variant]
self-aminoacylation (biotinyl-Ile-oxazolone): 0.514 | self-aminoacylation (biotinyl-Val-oxazolone): 0.635 | self-aminoacylation (biotinyl-Met-oxazolone): 0.547 | self-aminoacylation (biotinyl-Leu-oxazolone): 0.657 | self-aminoacylation (biotinyl-Phe-oxazolone): 0.656 | self-aminoacylation (biotinyl-Trp-oxazolone): 0.383

CCACUCUUCGAGCAAUCGGUC [Fam1B.1 aminoacylation ribozyme variant]
self-aminoacylation (biotinyl-Ile-oxazolone): 1.19 | self-aminoacylation (biotinyl-Val-oxazolone): 1.24 | self-aminoacylation (biotinyl-Met-oxazolone): 1.03 | self-aminoacylation (biotinyl-Leu-oxazolone): 0.964 | self-aminoacylation (biotinyl-Phe-oxazolone): 0.996 | self-aminoacylation (biotinyl-Trp-oxazolone): 1.32

CCACACUUCAAGCAAUUGAUC [Fam1B.1 aminoacylation ribozyme variant]
self-aminoacylation (biotinyl-Ile-oxazolone): 0.573 | self-aminoacylation (biotinyl-Val-oxazolone): 0.538 | self-aminoacylation (biotinyl-Met-oxazolone): 0.368 | self-aminoacylation (biotinyl-Leu-oxazolone): 0.536 | self-aminoacylation (biotinyl-Phe-oxazolone): 0.853 | self-aminoacylation (biotinyl-Trp-oxazolone): 0.518

AUUCCCCUAGGUCAUAGGGUG [Fam2.2 aminoacylation ribozyme variant]
self-aminoacylation (biotinyl-Ile-oxazolone): 3.38 | self-aminoacylation (biotinyl-Val-oxazolone): 3.08 | self-aminoacylation (biotinyl-Met-oxazolone): 4.99 | self-aminoacylation (biotinyl-Leu-oxazolone): 6.57 | self-aminoacylation (biotinyl-Phe-oxazolone): 17.1 | self-aminoacylation (biotinyl-Trp-oxazolone): 4.78

AUGCACCUAGGUGAUCGGGUG [Fam2.2 aminoacylation ribozyme variant]
self-aminoacylation (biotinyl-Ile-oxazolone): 4.96 | self-aminoacylation (biotinyl-Val-oxazolone): 3.71 | self-aminoacylation (biotinyl-Met-oxazolone): 4.8 | self-aminoacylation (biotinyl-Leu-oxazolone): 5.11 | self-aminoacylation (biotinyl-Phe-oxazolone): 30.7 | self-aminoacylation (biotinyl-Trp-oxazolone): 6.5

CUACUUCUAACAAUCGGUCUC [Fam1A.1 aminoacylation ribozyme variant]
self-aminoacylation (biotinyl-Ile-oxazolone): 0.686 | self-aminoacylation (biotinyl-Val-oxazolone): 0.664 | self-aminoacylation (biotinyl-Met-oxazolone): 0.634 | self-aminoacylation (biotinyl-Leu-oxazolone): 0.572 | self-aminoacylation (biotinyl-Phe-oxazolone): 0.799 | self-aminoacylation (biotinyl-Trp-oxazolone): 0.571

AUUAACCUAGGUCAUCAGGUG [Fam2.2 aminoacylation ribozyme variant]
self-aminoacylation (biotinyl-Ile-oxazolone): 1.24 | self-aminoacylation (biotinyl-Val-oxazolone): 1.48 | self-aminoacylation (biotinyl-Met-oxazolone): 1.35 | self-aminoacylation (biotinyl-Leu-oxazolone): 1.47 | self-aminoacylation (biotinyl-Phe-oxazolone): 1.4 | self-aminoacylation (biotinyl-Trp-oxazolone): 1.43

AUUACCGUGGUCAUCGCGUGA [Fam2.1 aminoacylation ribozyme variant]
self-aminoacylation (biotinyl-Ile-oxazolone): 8.94 | self-aminoacylation (biotinyl-Val-oxazolone): 11 | self-aminoacylation (biotinyl-Met-oxazolone): 17.7 | self-aminoacylation (biotinyl-Leu-oxazolone): 21.5 | self-aminoacylation (biotinyl-Phe-oxazolone): 140 | self-aminoacylation (biotinyl-Trp-oxazolone): 22.2

GAGUUCGCUAAUAGUCGCAAG [Fam3.1 aminoacylation ribozyme variant]
self-aminoacylation (biotinyl-Ile-oxazolone): 2.8 | self-aminoacylation (biotinyl-Val-oxazolone): 2.52 | self-aminoacylation (biotinyl-Met-oxazolone): 1.91 | self-aminoacylation (biotinyl-Leu-oxazolone): 2.71 | self-aminoacylation (biotinyl-Phe-oxazolone): 8.98 | self-aminoacylation (biotinyl-Trp-oxazolone): 2.21

AGGUUUGCUAAUAGUCGAAAG [Fam3.1 aminoacylation ribozyme variant]
self-aminoacylation (biotinyl-Ile-oxazolone): 1.2 | self-aminoacylation (biotinyl-Val-oxazolone): 1.02 | self-aminoacylation (biotinyl-Met-oxazolone): 1.16 | self-aminoacylation (biotinyl-Leu-oxazolone): 0.991 | self-aminoacylation (biotinyl-Phe-oxazolone): 13.6 | self-aminoacylation (biotinyl-Trp-oxazolone): 3.4

AUUACACUUGUCAUCGAGUGA [Fam2.1 aminoacylation ribozyme variant]
self-aminoacylation (biotinyl-Ile-oxazolone): 2.51 | self-aminoacylation (biotinyl-Val-oxazolone): 2.59 | self-aminoacylation (biotinyl-Met-oxazolone): 4.21 | self-aminoacylation (biotinyl-Leu-oxazolone): 4.35 | self-aminoacylation (biotinyl-Phe-oxazolone): 11.4 | self-aminoacylation (biotinyl-Trp-oxazolone): 5.31
